Results on 84 variants are retold here after the RNAGym collection of RNA variant scans (doi:10.1093/molbev/msab373).

The labels stand for the following.
B1: Azoarcus group I ribozyme (parent)
chain: GUGCCUUGCGCCGGGAAACCACGCAAGGGAUGGUGUCAAAUUCGGCGAAACCUAAGCGCCCGCCCGGGCGUAUGGCAACGCCGAGCCAAGCUUCGGCGCCUGCGCCGAUGAAGGUGUAGAGACUAGACGGCACCCACCUAAGGCAAACGCUAUGGUGAAGGCAUAGUCCAGGGAGUGGCGAAAGUCACACAAACCGG

Variants of B1 are the subject of the data set. Kind of data set: reverse-splicing fitness (ratio to wild type); higher = more active; in vitro selection; Mg2+ level not given. A digest of the protocol:
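An in vitro group I ribozyme library with randomized positions was T7-transcribed and gel-purified. In triplicate, 10 pmol RNA in EPPS pH 7.5 was reacted with 50 pmoles of a 30-nt RNA substrate for 1 h at 37 °C across several added MgCl2 levels (1–48 mM), then stopped with EDTA. Products were reverse transcribed from a substrate-complementary primer, PCR-amplified and sequenced (HiSeq 4000). Fitness is a variant's read proportion after selection over that before, normalised to wild type.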
Take C82G A111U A120U A145C C150G C169A U176G: the reverse-splicing fitness came out at 0.00246.

With C82G A111U A120U A145C C150G C169A U176A, the reverse-splicing fitness was determined as 0.00316.

With C82G A111U A120U A145C C150G C169A U176C, the reverse-splicing fitness was found to be 0.00248.

C82G A111U A120G A145U C169A U176G: the reverse-splicing fitness amounted to 0.00445.

Turning to C82G A111U A120G A145U C169A U176C, the reverse-splicing fitness was 0.0135.

Consider C82G A111U A120G A145U C169A U176A, for which the reverse-splicing fitness turned out to be 0.0133.

As to C82G A111U A120G C150A C169G U176C, the reverse-splicing fitness came to 0.0245.

Take C82G A111U A120G C150A C169G U176A: the reverse-splicing fitness worked out at 0.0227.

Regarding C82G A111U A120G C150A C169G U176G, the reverse-splicing fitness was found to be 0.00607.

For C82G A111U A120G A145U C150U C169U, the reverse-splicing fitness was found to be 0.00944.

C82G A111U A120G A145U C150U C169G: the reverse-splicing fitness was found to be 0.0123.

On to C82G A111U A120G A145U C150U C169A, for which the reverse-splicing fitness is 0.0117.

Consider C82G A111U A120U A145C C169G U176C, for which the reverse-splicing fitness is 0.00219.

C82G A111U A120U A145C C169G U176G: the reverse-splicing fitness was determined as 0.00158.

As for C82G A111U A120U A145C C169G U176A, the reverse-splicing fitness amounted to 0.00225.

Regarding C82G A111U A120G A145U C169U U176C, the reverse-splicing fitness came out at 0.0158.

Regarding C82G A111U A120G A145U C169U U176A, the reverse-splicing fitness amounted to 0.0185.

C82G A111U A120G A145U C169U U176G: the reverse-splicing fitness was found to be 0.00419.

Take C82G A111U A120U A145C C150U C169A: the reverse-splicing fitness was determined as 0.00282.

In the case of C82G A111U A120U A145C C150U C169G, the reverse-splicing fitness was 0.00286.

Consider C82G A111U A120U A145C C150U C169U, for which the reverse-splicing fitness is 0.00298.

On to C82G A111U A120U A145C C150G C169A, for which the reverse-splicing fitness is 0.00362.

Consider C82G A111U A120U A145C C150G C169U, for which the reverse-splicing fitness was 0.00336.

On to C82G A111U A120U A145C C150G C169G, for which the reverse-splicing fitness is 0.00344.

With C82G A111U A120G C150G C169G U176A, the reverse-splicing fitness was determined as 0.0069.

Turning to C82G A111U A120G C150G C169G U176C, the reverse-splicing fitness was 0.00484.

C82G A111U A120G C150G C169G U176G: the reverse-splicing fitness amounted to 0.00471.

For the variant C82G A111U A120G A145U C150U C169A U176G, the reverse-splicing fitness was found to be 0.00501.

Turning to C82G A111U A120G A145U C150U C169A U176A, the reverse-splicing fitness amounted to 0.0149.

Take C82G A111U A120G A145U C150U C169A U176C: the reverse-splicing fitness was determined as 0.0128.

As for C82G A111U A120G A145G C169A U176A, the reverse-splicing fitness came out at 0.0172.

On to C82G A111U A120G A145G C169A U176C, for which the reverse-splicing fitness came to 0.0214.

Consider C82G A111U A120G A145G C169A U176G, for which the reverse-splicing fitness worked out at 0.00491.

C82G A111U A120U A145G C150A C169U U176A: the reverse-splicing fitness came to 0.00402.

As to C82G A111U A120U A145G C150A C169U U176C, the reverse-splicing fitness is 0.00514.

For the variant C82G A111U A120U A145G C150A C169U U176G, the reverse-splicing fitness was 0.00285.

For the variant C82G A111U A120G A145G C150A C169A U176C, the reverse-splicing fitness was 0.0216.

With C82G A111U A120G A145G C150A C169A U176G, the reverse-splicing fitness amounted to 0.00669.

For the variant C82G A111U A120G A145G C150A C169A U176A, the reverse-splicing fitness stood at 0.0195.

As for C82G A111U A120G A145U C169G, the reverse-splicing fitness amounted to 0.0137.

As to C82G A111U A120G A145U C169U, the reverse-splicing fitness worked out at 0.01.

Regarding C82G A111U A120G A145U C169A, the reverse-splicing fitness turned out to be 0.00825.

Consider C82G A111U A120G A145U C150A C169G, for which the reverse-splicing fitness stood at 0.00835.

On to C82G A111U A120G A145U C150A C169U, for which the reverse-splicing fitness came out at 0.00711.

As for C82G A111U A120G A145U C150A C169A, the reverse-splicing fitness came out at 0.00975.

In the case of C82G A111U A120G A145U C150G U176G, the reverse-splicing fitness amounted to 0.0039.

C82G A111U A120G A145U C150G U176C: the reverse-splicing fitness was determined as 0.0104.

C82G A111U A120G A145U C150G U176A: the reverse-splicing fitness was 0.00634.

Take C82G A111U A120G C169U U176A: the reverse-splicing fitness was 0.0197.

Turning to C82G A111U A120G C169U U176G, the reverse-splicing fitness is 0.00589.

With C82G A111U A120G C169U U176C, the reverse-splicing fitness is 0.0179.

Consider C82G A111U A120U A145G C150A C169G U176G, for which the reverse-splicing fitness turned out to be 0.00257.

With C82G A111U A120U A145G C150A C169G U176A, the reverse-splicing fitness was 0.00878.

For C82G A111U A120U A145G C150A C169G U176C, the reverse-splicing fitness was 0.00577.

Turning to C82G A111U A120G A145G C150A U176A, the reverse-splicing fitness turned out to be 0.011.

In the case of C82G A111U A120G A145G C150A U176G, the reverse-splicing fitness stood at 0.00873.

With C82G A111U A120G A145G C150A U176C, the reverse-splicing fitness is 0.0219.

On to C82G A111U A120G A145G C150G C169A U176C, for which the reverse-splicing fitness is 0.0126.

As for C82G A111U A120G A145G C150G C169A U176A, the reverse-splicing fitness turned out to be 0.0133.

For C82G A111U A120G A145G C150G C169A U176G, the reverse-splicing fitness came out at 0.00831.

For the variant C82G A111U A120G A145C C169U, the reverse-splicing fitness is 0.00836.

As for C82G A111U A120G A145C C169G, the reverse-splicing fitness is 0.0125.

Regarding C82G A111U A120G A145C C169A, the reverse-splicing fitness worked out at 0.00794.

Consider C82G A111U A120G A145U C150G C169G U176C, for which the reverse-splicing fitness came to 0.00489.

Regarding C82G A111U A120G A145U C150G C169G U176G, the reverse-splicing fitness came out at 0.00425.

In the case of C82G A111U A120G A145U C150G C169G U176A, the reverse-splicing fitness amounted to 0.00644.

On to C82G A111U A120G A145G C150A C169G U176C, for which the reverse-splicing fitness was found to be 0.025.

Turning to C82G A111U A120G A145G C150A C169G U176G, the reverse-splicing fitness was 0.0053.

Consider C82G A111U A120G A145G C150A C169G U176A, for which the reverse-splicing fitness came out at 0.0165.

Turning to C82G A111U A120U A145C C150G C169G U176A, the reverse-splicing fitness is 0.00357.

For C82G A111U A120U A145C C150G C169G U176C, the reverse-splicing fitness turned out to be 0.00235.

Regarding C82G A111U A120U A145C C150G C169G U176G, the reverse-splicing fitness came to 0.00237.

On to C82G A111U A120G A145U C150A U176G, for which the reverse-splicing fitness turned out to be 0.00661.

Turning to C82G A111U A120G A145U C150A U176A, the reverse-splicing fitness stood at 0.0108.

As to C82G A111U A120G A145U C150A U176C, the reverse-splicing fitness was determined as 0.0173.

Take C82G A111U A120G C150U C169G U176C: the reverse-splicing fitness was found to be 0.0205.

Turning to C82G A111U A120G C150U C169G U176G, the reverse-splicing fitness turned out to be 0.0053.

As to C82G A111U A120G C150U C169G U176A, the reverse-splicing fitness was determined as 0.0168.

For C82G A111U A120G A145C C150G C169G U176A, the reverse-splicing fitness is 0.00853.

In the case of C82G A111U A120G A145C C150G C169G U176G, the reverse-splicing fitness was 0.00464.

On to C82G A111U A120G A145C C150G C169G U176C, for which the reverse-splicing fitness stood at 0.00745.

Consider C82G A111U A120G A145U C150U C169U U176C, for which the reverse-splicing fitness amounted to 0.0167.

With C82G A111U A120G A145U C150U C169U U176G, the reverse-splicing fitness was 0.00486.

With C82G A111U A120G A145U C150U C169U U176A, the reverse-splicing fitness was 0.0188.
